Results from patent US9580487B2, “Method of treating stomach or bowel-related disorders by administering glucagon-like-peptide-2 (GLP-2) analogues” (Zealand Pharma A/S, priority 2005, dated 2017).
Entries after “also recorded” stand apart in the source; their conditions may differ. No end group written: not given here.

What was measured:
[1] = Chemical stability testing: incubation in HCl, NaOH, H2O2 or NH4HCO3 at 40° C., remaining purity by RP-HPLC; type: physicochemical; conditions: for Stability during acid hydrolysis (in words): 0.1 M HCl, 12 days; for Stability during acid hydrolysis (in words) / Purity H2O2 0.5% 3 days / Purity HCl 0.1M 12 days / Purity NH4HCO3 0.1M 6 days: 40° C.; for Purity H2O2 0.5% 3 days / Purity HCl 0.1M 12 days / Purity NH4HCO3 0.1M 6 days: 2 mg/ml, relative to the purity at T=0; for Purity H2O2 0.5% 3 days / Purity HCl 0.1M 12 days: RP-HPLC; for Purity NH4HCO3 0.1M 6 days: pH 8, RP-HPLC
Protocol: The GLP-2 analogues were dissolved in purified water and subsequently diluted in solutions containing HCl, NaOH, H2O2 or NH4HCO3. The solutions were incubated at 40° C. to produce hydrolysis, deamidation and oxidation products. The samples were analyzed by RP-HPLC and the percentage of remaining intact compound was determined as a measure for the relative stability. The major degradation products were tentatively identified by LC-MS.
The GLP-2 analogues tested and the reference Gly^2-GLP-2, ZP1559 (SEQ ID NO:54), were dissolved in water and subsequently diluted into solutions containing HCl, NaOH, H2O2 or NH4HCO3. The samples were incubated at 40° C. to generate hydrolysis, deamidation and oxidation products, respectively. The compounds were analysed by RP-HPLC for purity of the original main peak and by LC-MS for confirmation of the identity by mass of the main peak and major degradation products.
The GLP-2 analogues were first dissolved in MQW to a concentration of 4 mg/ml and then further diluted in the stress solutions at a 1:1 ratio (e.g. 125 μl plus 125 μl). The final concentrations were 2 mg/ml of the GLP-2 analogues for stress conditions with 0.1 M HCl, 0.01M NaOH, 0.1 M NH4HCO3 and 0.5% H2O2, respectively.
The solutions were incubated at 40° C. in the dark and then diluted in Eluent A to a concentration of 0.5 mg/ml (addition of 750 μl) prior to analyses by RP-HPLC and by LC-MS.
The RP-HPLC analyses were performed on an Agilent Series 1100 HPLC system under control of the ChemStation (Revision A.08.03 [847]) software from Agilent Technologies, Inc. The raw data and the results of the peak integration were deposited on the ChemStore C/S server by the use of Agilent Technologies Revision B01.03 software.
The results are shown in Table 9 as the compound purity measured by RP-HPLC after incubation under stress conditions. This purity is a measure for the remaining intact compound after incubation in stress solutions, relative to the purity measured a T=0.

male C57BL mice = assay: Dose-response effect on intestinal growth (SI mass, SI-Colon Sensitivity Index, colon and stomach mass); type: in vivo; conditions: 5-405 nmol/kg s.c. b.i.d. for three days
Protocol: Values are means±SEM. *: P<0.05 relative to the equimolar dose of [Gly2]GLP-2 (SEQ ID NO:54).
FIG. 2 is a set of graphs showing full dose-response data of four small intestine selective compounds (compound nos. 1846 (SEQ ID NO:34), 1855 (SEQ ID NO:43), 1848 (SEQ ID NO:36), 1858 (SEQ ID NO:46)) on the Small Intestine (SI)-to-Colon Sensitivity Index mice relative to the non-selective reference compound [Gly2]GLP-2 (SEQ ID NO:54). Compounds were administered by subcutaneous injection b.i.d. for three days in C57BL mice at the following doses: 0 (vehicle), 5, 15, 45, 135, 405 nmol/kg (n=6/dose group). Responses at each dose level were compared with responses obtained at the same dose level in pair-treated mice treated with the non-selective reference compound [Gly2]GLP-2 (SEQ ID NO:54). The SI-Colon Sensitivity Index was calculated as SI-mass relative to colon mass and the Sensitivity Index at each dose level was normalized to the response observed with the non-selective reference compound [Gly2]GLP-2 (SEQ ID NO:54). […] Values are means±SEM. *: P<0.05 relative to the equimolar dose of [Gly2]GLP-2.
FIG. 4 is a set of graphs showing full dose-response data of three small intestine selective compounds (compound nos. 1857 (SEQ ID NO:45), 1820 (SEQ ID NO:10), and 1849 (SEQ ID NO:37)) on the Small Intestine (SI)-to-Colon Sensitivity Index mice relative to the non-selective reference compound [Gly2]GLP-2 (SEQ ID NO:54). Compounds were administered by subcutaneous injection b.i.d. for three days in C57BL mice at the following doses: 0 (vehicle), 5, 15, 45, 135, 405 nmol/kg (n=6/dose group). Responses at each dose level were compared with responses obtained at the same dose level in pair-treated mice treated with the non-selective reference compound [Gly2]GLP-2 (SEQ ID NO:54). The SI-Colon Sensitivity Index was calculated as SI-mass relative to colon mass and the Sensitivity Index at each dose level was normalized to the response observed with the non-selective reference compound [Gly2]GLP-2 (SEQ ID NO:54). […] Values are means±SEM. *: P<0.05 relative to the equimolar dose of [Gly2]GLP-2 (SEQ ID NO:54).
Compounds were administered by subcutaneous injection b.i.d. for three days in C57BL mice at the following doses: 0 (vehicle), 5, 15, 45, 135, 405 nmol/kg (n=6/dose group). […] Values are means±SEM. *: P<0.05 relative to the vehicle.
The dose-response effect of 1820 (SEQ ID NO:10), 1855 (SEQ ID NO:43), ZP1846 (SEQ ID NO:34), 1858 (SEQ ID NO:46), 1849 (SEQ ID NO:37), 1848 (SEQ ID NO:36), and 1857 (SEQ ID NO:45) on small intestinal mass was determined in male C57BL mice. Individual groups (n=6) of mice were given 5, 15, 45, 135 or 405 nmol/kg of each compound, s.c, twice daily for three consecutive days. For comparison purposes other groups of animals were given either equimolar doses of [Gly2]GLP-2 (SEQ ID NO:54) or vehicle (phosphate buffered saline, pH 7.4) in the same dosing regimen. Twenty-four hours after the last dose of compound had been given the mice were sacrificed and the small intestine (from the pylorus to the cecum emptied and weighed to determine the effect on small intestinal mass.

Row | Substance | Stability during acid hydrolysis (in words) [1] | Purity H2O2 0.5% 3 days [1] [%] | Purity HCl 0.1M 12 days [1] [%] | Purity NH4HCO3 0.1M 6 days [1] [%] | SI-Colon Sensitivity Index (SI mass relative to colon mass) relative to [Gly2]GLP-2 (male C57BL mice) | Small intestinal mass (SI-BW ratio), maximal response relative to [Gly2]GLP-2 (male C57BL mice) | Growth stimulation of small intestine, colon and stomach mass (male C57BL mice; vs vehicle) | Stability under accelerated oxidation (in words) ([1]; 0.5% H2O2, 40° C., 3 days)
1 | [Gly2, Glu3, Leu10, Ser11, Ala16,24,28]hGLP-2(1-33)-NH2 [Compound 1857] | tendency of slightly higher stability | 59 | 86 | 96 | increased maximal small intestinal sensitivity relative to [Gly2]GLP-2; also recorded: increased selectivity for causing growth of the small intestine relative to the colon | maximal responses that were significantly greater than [Gly2]GLP-2 |  | 
2 | [Gly2, Glu3, Ser8,11, Leu10, Ala16,24,28]hGLP-2(1-33)-(Lys)6-NH2 (HGEGSFSSELSTILDALAARDFIAWLIATKITDKKKKKK-NH2) [Compound 1846] |  | 64 | 70 | 82 | increased maximal small intestinal sensitivity relative to [Gly2]GLP-2; also recorded: increased selectivity for causing growth of the small intestine relative to the colon | maximal responses that were significant greater than [Gly2]GLP-2 |  | 
3 | [Gly2, Glu3, Thr5, Ser8, Leu10, Ala11,16,24,28]hGLP-2(1-33)-(Lys)6-NH2 (HGEGTFSSELATILDALAARDFIAWLIATKITDKKKKKK-NH2) [Compound 1848] |  | 68 | 63 | 93 | increased maximal small intestinal sensitivity relative to [Gly2]GLP-2; also recorded: increased selectivity for causing growth of the small intestine relative to the colon | maximal responses that were significant greater than [Gly2]GLP-2 | only produced dose-dependent growth stimulation in the small intestine | 
4 | [Gly2, Glu3, Thr5, Ser8, Leu10, Ala11,16,24,28]hGLP-2(1-33)-NH2 [Compound 1855] | tendency of slightly higher stability | 14 | 85 | 97 | increased maximal small intestinal sensitivity relative to [Gly2]GLP-2; also recorded: increased selectivity for causing growth of the small intestine relative to the colon | maximal responses that were significant greater than [Gly2]GLP-2 |  | unexplainable low stability
